Patent US20190106487A1 (Sanofi, published 2019)
Positions count from the first letter of the chain named.

T1: rhIL-1RAcP/Fc Chimera (human, UniProt Q9NPH3 21-359)
T1 construct: also called P013_03; P013-03
T1 sequence (looked up): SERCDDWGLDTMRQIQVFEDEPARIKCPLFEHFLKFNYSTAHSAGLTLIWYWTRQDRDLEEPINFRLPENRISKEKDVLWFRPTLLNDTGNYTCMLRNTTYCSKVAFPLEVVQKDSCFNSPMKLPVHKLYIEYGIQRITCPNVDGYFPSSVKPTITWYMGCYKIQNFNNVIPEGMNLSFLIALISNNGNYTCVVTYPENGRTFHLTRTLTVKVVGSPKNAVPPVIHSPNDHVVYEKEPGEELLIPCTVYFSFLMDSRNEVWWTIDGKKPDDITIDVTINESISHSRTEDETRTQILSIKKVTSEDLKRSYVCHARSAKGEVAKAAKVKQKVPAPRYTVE

T2: mIL1RAcP-Fc (murine, UniProt Q61730 21-359)
T2 construct: also called P013_04; P013-04
T2 sequence (looked up): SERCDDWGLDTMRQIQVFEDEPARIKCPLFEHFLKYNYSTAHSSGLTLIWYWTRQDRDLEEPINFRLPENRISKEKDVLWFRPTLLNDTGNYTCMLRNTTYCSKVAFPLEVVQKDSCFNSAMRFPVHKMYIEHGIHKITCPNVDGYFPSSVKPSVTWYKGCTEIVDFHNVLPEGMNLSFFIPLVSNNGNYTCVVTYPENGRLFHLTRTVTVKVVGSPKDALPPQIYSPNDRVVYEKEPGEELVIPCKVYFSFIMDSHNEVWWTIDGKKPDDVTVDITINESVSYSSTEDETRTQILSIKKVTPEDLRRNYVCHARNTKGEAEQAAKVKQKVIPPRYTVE

T3: human IL-1RAcP on 293T/17-FR cells (human, UniProt Q9NPH3 21-570)
T3 sequence (looked up): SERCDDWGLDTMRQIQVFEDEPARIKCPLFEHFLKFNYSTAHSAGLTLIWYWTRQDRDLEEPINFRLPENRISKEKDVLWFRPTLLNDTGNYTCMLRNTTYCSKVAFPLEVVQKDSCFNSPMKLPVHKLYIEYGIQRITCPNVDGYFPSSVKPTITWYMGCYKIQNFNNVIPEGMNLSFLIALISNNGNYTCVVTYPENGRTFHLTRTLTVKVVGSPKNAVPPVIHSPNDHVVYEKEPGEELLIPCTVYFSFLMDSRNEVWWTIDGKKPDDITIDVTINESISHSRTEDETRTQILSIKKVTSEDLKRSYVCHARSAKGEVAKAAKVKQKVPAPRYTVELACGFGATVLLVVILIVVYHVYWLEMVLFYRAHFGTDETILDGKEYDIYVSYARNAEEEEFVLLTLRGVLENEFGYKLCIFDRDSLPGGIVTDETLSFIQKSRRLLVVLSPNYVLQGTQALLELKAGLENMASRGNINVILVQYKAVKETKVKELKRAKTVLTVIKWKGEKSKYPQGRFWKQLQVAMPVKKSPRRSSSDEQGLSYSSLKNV

B1: P013.S.01.B.H05 (antibody, V domains shown)
VH: LEQSGGGAEGGLVKPGGSLELCCKASGFSLSNSYWICWVRQAPGKGLEWIGCIYVGSSGSTYYASWVNGRFTLSRDIDQSTGCLQLNSLTAADTAIYYCARDGATSTSGHLFELWGQGTLVTVSS
VL: ALVMTQTPSPVSAAVGGTVTINCQASEDIYSNLAWFQQKPGQPPKLLIYRASTLASGVPSRFSGSGSGTEFTLTISGVQSDDAATYYCLGIYTYISADGSLYNAFGGGTEVVVK
notes: rabbit monoclonal antibody; also called P013.A.00109.F08
B2: P013.S.01.B.H06 (antibody, V domains shown)
VH: LEQSGGGGEGGLVKPGGSLELCCKASGFSLSSSYWICWVRQAPGKGLEWIGCIYVGSSGSTYYASWVSGRFTLSRDIDQSTGCLQLNSLTAADTAMYYCARDIYGSTNGYDLWGQGTLVTVSS
VL: B1 VL with R50Q, T53K, V78L, A83V, I91V, Y92G, A97G, Y102D
notes: rabbit monoclonal antibody; also called P013.A.00086.B03
B3: P013.S.01.B.A06 (antibody, V domains shown)
VH: QSLEESGGRLVTPGTPLTLSCKVSGFSLSSYDMSWVRQTPGKGLEWIGTIYIGGTTAYASWPKGRFTISKTSTTVDLKITSPTKEDTATYFCARLQGANYYNSLALWGQGTLVTVSS
VL: DVVMTQTPASVSEPVGGTVTIKCQASQSIYSFLSWYQQKPGQPPKLLIYAASDLESGVPSRFSGSGYGTEFTLTISDLESADAATYYCQCNYIIDYGAFGGGTEVVVK
notes: rabbit monoclonal antibody; also called P013.A.00133.B12
B4: P013.S.01.B.F05 (antibody, V domains shown)
VH: QSLEESGGRLVTPGGSLTLTCTVSGIDLSNYAMSWVRQAPGKGLEWIGSVISGGSTYYATWAKGRFTISKTSTTVDLKMTSLTTEDTATYFCARGCPGYNGDKYALDLWGPGTVVTVSS
VL: AFEMTQTPSSVSEPVGGTVTIKCQASQSIHNYLSWYQQKPGQRPKLLIYRASTLASGVPSRFKGSGSGTEFTLTISGVESADAATYYCQQGATSYDIDNAFGGGTEVVVK
notes: rabbit monoclonal antibody; also called P013.A.00087.C06
B5: P013.S.01.B.A03 (antibody, V domains shown)
VH: QEQLEESGGDLVQPEGSLTVTCTASGFSFSFGYYMCWVRQAPGKGLEWIACIYGDSSDTLYANWAKGRFTVSKTSSTTVTLQMTSLTAADTATYFCARYPGGSYYNLWGPGTRVTVSS
VL: ALVMTQTPASVEAAVGGTVTIKCQASQTISINLAWYQQKPGQRPKLLIYYASTLASGVPSRFSGSGSGTEFTLTISGVQSDDAATYYCQQGYTEDNIDNTFGGGTEVVVK
notes: rabbit monoclonal antibody; also called P013.A.00088.A07
B6: P013.S.01.B.G04 (antibody, V domains shown)
VH: QSVEESGGRLVTPGTPLTLTCTVSGFSLSVYAMGWFRQAPGKGLEWIGDIYIASDGTWYANWAKGRFTISKTSTTVDLKITSPTTEDTATYFCAREIDAGYVGYGFNLWGQGTLVTVSS
VL: AQALTQTPSPVSAAVGGTVTINCQSSQSVYSDYLGWYQQKPGQPPKLLIYWASKLETGVPSRFKGSGSGTQFTLTISGVQSDDAATYYCQATYYGSGWYRAFGGGTEVVVK
notes: rabbit monoclonal antibody; also called P013.A.00013.G06
B7: P013.S.01.B.G03 (antibody, V domains shown)
VH: QEQLVESGGGLVQPEGSLTLTCKASGFDFSSNYYMCWVRQAPGKGLELIACIYTNSGNTWSASWAKGRFTISKTSSTTVTLQMTSLTAADTATYFCARDLNYPDTSNLWGQGTLVTVSS
VL: DIVMTQTPASVEAAVGGTVTIKCQASQSIGYYLAWYQQKPGQPPKLLISRASTLASGVPSRFKGSGSGTQFTLTISDLESADVATYYCQSYYNSDSDAFGGGTEVVVK
notes: rabbit monoclonal antibody; also called P013.A.00030.C03
B8: P013.S.01.B.A04 (antibody, V domains shown)
VH: QEQLEESGGGLVKPGGTLTLTCKASGIDFSSYYYMCWVRQAPGKGLEWIACIFIGYGDVTWYASWAKGRFTISKASSTTVTLQMTSLTAADTATYFCARALGSSGYRVNLWGPGTLVTVSS
VL: ALVMTQTPSSVSAAVGGTVTINCQASENIYSSLAWYQQKPGQPPKLLIYDASDLASGVPSRFKGSGSGKEFTLTISDLESDDAATYYCQQGYYSGGTDNDVFGGGTEVVVK
notes: rabbit monoclonal antibody; also called P013.A.00085.C03

These binders were tested against T1, rhIL-1RAcP/Fc Chimera (assay: ELISA, primary supernatant, coated hu-IL-1RAcP-Fc).
Summary of the method: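 Plates coated with 0.5 μg/mL Fc-tagged human IL-1RAcP; rabbit B-cell supernatant antibodies detected by peroxidase anti-rabbit IgG Fab2 and TMB, absorbance 450/620 nm. Parallel IL12Rβ1-Fc coating served as counterscreen to exclude tag binders.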

Binder | hu-IL1RaP ELISA (OD)
B1 | 3.3
B2 | 3.6
B3 | 3.5
B4 | 3.6
B5 | 3.3
B6 | 3.4
B7 | 3.2
B8 | 3.4

These binders were tested against T2, mIL1RAcP-Fc (assay: ELISA, primary supernatant, coated mu-IL-1RAcP-Fc).

Binder | mu-IL1RaP ELISA (OD)
B1 | 0.4
B2 | 0
B3 | 0
B4 | 1.2
B5 | 0
B6 | 0
B7 | 0
B8 | 0

The binders below were run against T1, rhIL-1RAcP/Fc Chimera (assay: ELISA, recombinant purified mAb).

Binder | EC50 [µg/mL]
B1 | 0.485
B2 | 0.064
B3 | 0.027
B4 | 0.052
B5 | 0.225
B6 | 0.255
B7 | 0.144
B8 | 0.027

The binders below were run against T3, human IL-1RAcP on 293T/17-FR cells (assay: cell-based or functional assay).

Binder | functional reporter gene assay (% inhibition), 0.04 µg/mL mAb [%] | functional reporter gene assay (% inhibition), 0.2 µg/mL mAb [%] | functional reporter gene assay (% inhibition), 1 µg/mL mAb [%] | functional reporter gene assay (% inhibition), 5 µg/mL mAb [%] | primary supernatant functional assay (% inh.), NF-kB luciferase reporter [%]
B1 | 20 | 47 | 88 | 90 | 95
B2 | 18 | 47 | 88 | 96 | 91
B3 | 14 | 85 | 99 | 100 | 96
B4 | 44 | 54 | 70 | 80 | 89
B5 | 77 | 94 | 98 | 99 | 95
B6 | 15 | 51 | 84 | 95 | 99
B7 | 38 | 51 | 82 | 92 | 89
B8 | 47 | 89 | 97 | 98 | 74
